How the values were obtained:
[1] = biological target: T1, mouse serum albumin (mouse, UniProt P07724 25-608); test: SPR (ProteOn XPR36), Protein #5 captured on hFAP-coated GLC chip, serum albumin as analyte, PBST; flagged as overestimated, inaccurate fit
T1 construct: also called MSA
Protocol: (§1) All SPR measurements were performed using a ProteOn XPR36 instrument (BioRad) and a running buffer of PBS pH 7.4 containing 0.005% Tween 20® (PBST). The 1:1 Langmuir model was used for the fitting of SPR traces.
ProteOn setup for Protein #5 binding to serum albumin of different species. First, human FAP (hFAP) was coated on a GLC chip (BioRad) to a level of 700 RU before 50 nM Protein #5 was immobilized as analyte for 120 s (dissociation of 0 s) at constant flow of 100 μl/min to a level of 120 RU. The binding of the serum albumin to Protein #5 was measured by injecting human serum albumin (HSA), cynomolgus serum albumin (CSA) and mouse serum albumin (MSA) in a serial dilution of 100, 33, 11 and 3.7 nM with an association of 120 s and a dissociation of 600 s at a constant flow of 100 μl/min. HSA, CSA and MSA binding was measured serially and the hFAP/Protein #5 complex was regenerated each time with 10 mM glycine pH2 for 18 s at a flow of 100 μl/min. Thus, Protein #5 had to be re-immobilized on hFAP after each regeneration step. […] The kinetic was calculated on the first 300 s of dissociation.

[2] = biological target: human CD40 on primary human B cells or human monocyte-derived dendritic cells (human, UniProt P25942 21-277); test: cell-based or functional assay
[3] = biological target: T2, mouse FAP (mouse, UniProt P97321 26-761, limits assumed); test: SPR (ProteOn XPR36), mFAP immobilized on GLC chip, Protein #5 as analyte
T2 construct: also called mFAP
T2 sequence (looked up): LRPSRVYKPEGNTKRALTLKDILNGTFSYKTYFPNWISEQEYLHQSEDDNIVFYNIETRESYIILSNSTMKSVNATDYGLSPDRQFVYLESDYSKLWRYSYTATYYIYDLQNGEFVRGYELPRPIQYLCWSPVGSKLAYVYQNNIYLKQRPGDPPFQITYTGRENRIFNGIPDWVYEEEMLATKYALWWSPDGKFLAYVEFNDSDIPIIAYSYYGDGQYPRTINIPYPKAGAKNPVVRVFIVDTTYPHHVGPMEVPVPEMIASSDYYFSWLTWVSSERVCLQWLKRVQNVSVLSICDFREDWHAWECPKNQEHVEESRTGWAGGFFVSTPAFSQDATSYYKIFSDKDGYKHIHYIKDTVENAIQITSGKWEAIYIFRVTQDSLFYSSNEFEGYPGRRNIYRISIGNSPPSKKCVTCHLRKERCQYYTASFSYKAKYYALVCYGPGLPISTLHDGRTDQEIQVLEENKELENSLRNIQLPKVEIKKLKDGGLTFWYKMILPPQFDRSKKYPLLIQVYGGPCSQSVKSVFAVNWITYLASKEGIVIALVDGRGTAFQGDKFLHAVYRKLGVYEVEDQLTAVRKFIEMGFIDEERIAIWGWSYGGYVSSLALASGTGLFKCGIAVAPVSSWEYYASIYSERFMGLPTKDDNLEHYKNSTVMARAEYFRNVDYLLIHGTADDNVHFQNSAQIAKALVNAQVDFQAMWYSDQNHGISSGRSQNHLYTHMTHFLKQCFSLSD
Protocol: as §1
(§2) ProteOn setup for Protein #5 binding to FAP of different species. hFAP, cynomolgus FAP (cFAP) and mouse FAP (mFAP) were immobilized on a GLC chip (BioRad) in 10 mM Na Acetate buffer pH5.3 to a level of 1200 RU, 800 RU and 2000 RU, respectively. The interaction of FAP and Protein #5 was measured by applying Protein #5 in a serial dilution of […] and 3.13 nM with an association of 120 s and dissociation of 1800 s using a constant flow of 100 μl/min. The targets were regenerated using 10 mM glycine pH 2 and 124 mM H₃PO₄. The signals were double referenced against the PBST treated control lanes.

[4] = biological target: T3, cynomolgus FAP (cynomolgus); test: SPR (ProteOn XPR36), FAP immobilized on GLC chip, Protein #5 as analyte, PBST, 1:1 Langmuir
T3 chain: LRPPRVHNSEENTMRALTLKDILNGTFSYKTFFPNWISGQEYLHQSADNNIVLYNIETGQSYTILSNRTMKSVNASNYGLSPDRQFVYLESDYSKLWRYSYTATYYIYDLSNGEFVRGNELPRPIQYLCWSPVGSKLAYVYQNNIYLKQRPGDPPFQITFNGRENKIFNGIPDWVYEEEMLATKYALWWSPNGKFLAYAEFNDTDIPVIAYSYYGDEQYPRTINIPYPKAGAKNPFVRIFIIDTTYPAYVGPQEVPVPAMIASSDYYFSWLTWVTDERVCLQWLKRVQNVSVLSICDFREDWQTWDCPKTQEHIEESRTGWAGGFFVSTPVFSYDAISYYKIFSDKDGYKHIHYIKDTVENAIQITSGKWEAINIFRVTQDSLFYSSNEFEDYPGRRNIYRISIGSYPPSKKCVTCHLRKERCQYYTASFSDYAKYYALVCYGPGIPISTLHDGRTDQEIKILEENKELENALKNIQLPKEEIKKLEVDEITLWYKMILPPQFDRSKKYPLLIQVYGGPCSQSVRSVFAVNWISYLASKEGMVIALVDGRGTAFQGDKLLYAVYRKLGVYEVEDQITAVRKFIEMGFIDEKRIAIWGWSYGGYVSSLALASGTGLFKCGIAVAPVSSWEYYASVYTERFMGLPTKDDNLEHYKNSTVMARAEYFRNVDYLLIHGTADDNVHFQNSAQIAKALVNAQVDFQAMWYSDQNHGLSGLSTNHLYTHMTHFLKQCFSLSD
Protocol: as §1, §2

Sequence of human CD40 on primary human B cells or human monocyte-derived dendritic cells (P25942 21-277 H80K/K81H limits assumed): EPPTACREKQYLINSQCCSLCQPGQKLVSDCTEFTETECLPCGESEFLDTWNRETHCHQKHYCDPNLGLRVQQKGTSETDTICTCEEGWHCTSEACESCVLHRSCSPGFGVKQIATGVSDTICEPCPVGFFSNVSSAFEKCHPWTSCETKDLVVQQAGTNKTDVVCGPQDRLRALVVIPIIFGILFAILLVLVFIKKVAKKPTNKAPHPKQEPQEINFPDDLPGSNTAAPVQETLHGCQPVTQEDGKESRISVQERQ

- koff [1]: 0.0126 s⁻¹
- kon [1]: 315000 M⁻¹ s⁻¹
- EC50, upregulation of CD86 and CD69 in human B cells co-cultured with FAP-expressing CHO cells [2]: 0.04 to 0.07 nM
- Kd [4]: 0.339 nM
- koff [4]: 0.000146 s⁻¹
- kon [4]: 432000 M⁻¹ s⁻¹
B1: DARPin Protein #5 (designed binder)
chain: GSDLGKKLLEAARAGQDDEVRELLKAGADVNAKDYFSHTPLHLAARNGHLKIVEVLLKAGADVNAKDFAGKTPLHLAAADGHLEIVEVLLKAGADVNAQDIFGKTPADIAADAGHEDIAEVLQKAAGSPTPTPTTPTPTPTTPTPTPTGSDLGKKLLEAARAGQDDEVRILLAAGADVNAKDVLGWTPLHLAAFEGHLEIVEVLLKAGADVNAKDKKGWTPLQLAARTGHLEIVEVLLKAGADVNAKDHIGATPLHLAAWQGHPEIVEVLLKAGADVNAQDKSGKTPADLAADAGHEDIAEVLQKAAGSPTPTPTTPTPTPTTPTPTPTGSDLGKKLLQAARAGQLDEVRELLKAGADVNAKDTWGFTPLHIAAESGHLEIVEVLLKAGADVNAKDVQGRTPLHIAAHSGHLEIVEVLLKAGADVNAKDFRGWTPLHLAAWSGHLEIVEILLKAGADVNAQDKSGKTPADLAARAGHQDIAEVLQKAAGSPTPTPTTPTPTPTTPTPTPTGSDLGKKLLQAARAGQLDEVRELLKAGADVNAKDTWGFTPLHIAAESGHLEIVEVLLKAGADVNAKDVQGRTPLHIAAHSGHLEIVEVLLKAGADVNAKDFRGWTPLHLAAWSGHLEIVEILLKAGADVNAQDKSGKTPADLAARAGHQDIAEVLQKAA
notes: also called SMA136; Molecule No. 1
- binding result [3]: no binding (tested: 50 nM (highest concentration injected))
